In PMC2104711 (The EMBO Journal, 2007):

Molecular target: human XLF/Cernunnos (1–233), tag-free (cleaved XLF441) (human, UniProt Q9H9Q4 1-233)
Assay: SPR

Sequence of human XLF/Cernunnos (1–233), tag-free (cleaved XLF441) (Q9H9Q4 1-233): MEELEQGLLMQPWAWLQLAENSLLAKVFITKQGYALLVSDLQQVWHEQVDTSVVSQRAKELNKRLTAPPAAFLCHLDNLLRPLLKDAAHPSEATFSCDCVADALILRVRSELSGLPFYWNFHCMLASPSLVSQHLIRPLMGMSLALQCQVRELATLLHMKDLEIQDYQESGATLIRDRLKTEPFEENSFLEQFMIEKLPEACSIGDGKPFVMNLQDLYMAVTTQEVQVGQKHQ

Kd: 7.8 µM
B1: XRCC4 (1–213) with N-terminal His6 tag (domain or fragment, UniProt Q13426 1-213, looked up)
chain: MERKISRIHLVSEPSITHFLQVSWEKTLESGFVITLTDGHSAWTGTVSESEISQEADDMAMEKGKYVGELRKALLSGAGPADVYTFNFSKESCYFFFEKNLKDVSFRLGSFNLEKVENPAEVIRELICYCLDTIAENQAKNEHLQKENERLLRDWNDVQGRFEKCVSAKEALETDLYKRFILVLNEKKTKIRSLHNKLLNAAQEREKDIKQEG
